Test results: PMC9394474

B1: unnamed (parent)
chain 1: TIEALFQ
chain 2: not shown

Variants of: B1
Experiment: ITC
Conditions: with partner chain of the complex shown

**Q.** Which Kd does the source give for chain 1 T1A here?
**A.** 17 µM
